{"source": "the PETadex activity labels (doi:10.1038/s41467-023-40233-w)", "proteins": {"B1": {"name": "unnamed (protein)", "chain": "MLSFLRSTGRPERRRASLPALLLFTAALVASGLTAAPAAQAADNPYQRGPDPTNASIEAATGPFAVGTQPIVGASGFGGGQIYYPTDTSQTYGAVVIVPGFISVWAQLNWLGPRLASQGFVVIGIETSTITDLPDPRGDQALAALDWATTRSPVASRIDRTRLAAAGWSMGGGGLRRAALQRPSLKAIVGMAPWNGERNWSAVTVPTLFFGGSSDAVASPNDHAKPFYNSITRAEKDYIELRNADHFFPTSANTTMAKYFISWLKRWVDNDTRYTQFLCPGPSTGLFAPVSASMNTCPF"}, "B2": {"name": "unnamed (protein)", "chain": "MLSFLRSTGRPERRRASLPALLLFTAALVASGLTAAPAAQAADNPYQRGPDPTNASIEAATGPFAVGTQPIVGASGFGGGQIYYPTDTSQTYGAVVIVPGFISVWAQLNWLGPRLASQGFVVIGIETSVITDLPDPRGDQALAALDWATTRSPVASRIDRTRLAAAGWSMGGGGLRRAALQRPSLKAIVGMAPWNGERNWSAVTVPTLFFGGSSDAVASPNDHAKPFYNSITRAEKDYIELRNADHFFPTSANTTMSKYFISWLKRWVDNDTRYTQFLCPGPSTGLFAPVSASMNTCPF"}, "B3": {"name": "unnamed (protein)", "chain": "MLSFLRSTGRPERRRASLPALLLFTAALVASGLTAAPAAQAADNPYQRGPDPTNASIEAATGPFAVGTQPIVGASGFGGGQIYYPTDTSQTYGAVVIVPGFISVWAQLAWLGPRLASQGFVVIGIETSTITDLPDPRGDQALAALDWATTRSPVRSRIDRTRLAAAGWSMGGGGLRRAACQRPSLKAIVGMAPWNTEKNWSCVTVPTLFFGGSSDAVASPNDHAKPFYNSITRAEKDYIELCNADHFFPTSANTTMAKYFISWLKRWVDNDTRYTQFLCPGPSTGLFAPVCASMNTCPF"}, "B4": {"name": "unnamed (protein)", "chain": "MLSFLRSTGRPERRRASLPALLLFTAALVASGLTAAPAAQAADNPYQRGPDPTNASIEAATGPFAVGTQPIVGASGFGGGQIYYPTDTSQTYGAVVIVPGFISVWAQLNWLGPRLASQGFVVIGIETSVITDLPDPRGDQALAALDWATTRSPVASRIDRTRLAAAGWSMGGGGLRRAALQRPSLKAIVGMAPWNGERNWSAVCVPTLFFGGSSDAVASPNDHAKPFYNSITCAEKDYIELRNADHFFPTSANTTMAKYFISWLKRWVDNDTRYTQFLCPGPSTGLFAPVSASMNTCPF"}, "B5": {"name": "unnamed (protein)", "chain": "MLSFLRSTGRPERRRASLPALLLFTAALVASGLTAAPAAQAADNPYQRGPDPTNASIEAATGPFAVGTQPIVGASGFGGGQIYYPTDTSQTYGAVVIVPGFISVWAQLNWLGPRLASQGFVVIGIETSVITDQPDPRGDQALAALDWATTRSPVASRIDRTRLAAAGWSMGGGGLRRAALQRPSLKAIVGMAPWNGERNWSAVTVPTLFFGGSSDAVASPNDHAKPFYNSITRAEKDYIELRNADHFFPTSANTTMAKYFISWLKRWVDNDTRYTQFLCPGPSTGLFAPVSASMNTCPF"}, "B6": {"name": "unnamed (protein)", "chain": "MLSFLRSTGRPERRRASLPALLLFTAALVASGLTAAPAAQAADNPYQRGPDPTNASIEAATGPFAVGTQPIVGASGFGGGQIYYPTDTSQTYGAVVIVPGFISVWAQLNWLGPRLASQGFVVIGIETSVITDLPDPRGDQALAALDWATTRSPVASRIDRTRLAAAGWSMGGGGLRRAALQRPSLKAIVGMAPWNGERNWSATTVPTLFFGGSSDAVASPNDHAKPFYNSITRAEKDYIELRNADHFFPTSANTTMAKYFISWLKRWVDNDTRYTQFLCPGPSTGLFAPVSASMNTCPF"}, "B7": {"name": "unnamed (protein)", "chain": "MLSFLRSTGRPERRRASLPALLLFTAALVASGLTAAPAAQAADNPYQRGPDPTNASIEAATGPFAVGTQPIVGASGFGGGQIYYPTDTSQTYGAVVIVPGFISVWAQLNWLGPRLASQGFVVIGIETSVITDLPDPRGDQALAALDWATTASPVASRIDRTRLAAAGWSMGGGGLRRAALQRPSLKAIVGMAPWNGERNWSAVTVPTLFFGGSSDAVASPNDHAKPFYNSITRAEKDYIELRNADHFFPTSANTTMAKYFISWLKRWVDNDTRYTQFLCPGPSTGLFAPVSASMNTCPF"}, "B8": {"name": "unnamed (protein)", "chain": "MLSFLRSTGRPERRRASLPALLLFTAALVASGLTAAPAAQAADNPYQRGPDPTNASIEAATGPFAVGTQPIVGASGFGGGQIYYPTDTSQTYGAVVIVPGFISVWAQLAWLGPRLASQGFVVIGIETSTITDLPDPRGDQALAALDWATTRSPVRSRIDRTRLAAAGWSMGGGGLRRAACQRPSLKAIVGMAPWNGEKNWSCVTVPTLFFGGSSDAVASPNDHAKPFYNSITRAEKDYIELCNADHFFPTSANTTMAKYFISWLKRWVDNDTRYTQFLCPGPSTGLFAPVCASMNTCPF"}, "B9": {"name": "unnamed (protein)", "chain": "MLSFLRSTGRPERRRASLPALLLFTAALVASGLTAAPAAQAADNPYQRGPDPTNASIEAATGPFAVGTQPIVGASGFGGGQIYYPTDTSQTYGAVVIVPGFISVWAQLNWLGPRLASQGFVVIGIETSVITDLPDPRGDQALAALDWATTRSPVASRIDRTRLAAAGHSMGGGGLRRAALQRPSLKAIVGMAPWNGERNWSAVTVPTLFFGGSSDAVASPNDHAKPFYNSITRAEKDYIELRNADHFFPTSANTTMAKYFISWLKRWVDNDTRYTQFLCPGPSTGLFAPVSASMNTCPF"}, "B10": {"name": "unnamed (protein)", "chain": "MLSFLRSTGRPERRRASLPALLLFTAALVASGLTAAPAAQAADNPYQRGPDPTNASIEAATGPFAVGTQPIVGASGFGGGQIYYPTDTSQTYGAVVIVPGFTSVWAQLNWLGPRLASQGFVVIGIETSVITDLPDPRGDQALAALDWATTRSPVASRIDRTRLAAAGWSMGGGGLRRAALQRPSLKAIVGMAPWNGERNWSAVTVPTLFFGGSSDAVASPNDHAKPFYNSITRAEKDYIELRNADHFFPTSANTTMAKYFISWLKRWVDNDTRYTQFLCPGPSTGLFAPVSASMNTCPF"}, "B11": {"name": "unnamed (protein)", "chain": "MLSFLRSTGRPERRRASLPALLLFTAALVASGLTAAPAAQAADNPYQRGPDPTNASIEAATGPFAVGTQPIVGASGFGGGQIYYPTDTSQTYGAVVIVPGFISVWAQLNWLGPRLASQGFVVIGIETSVITDLPDPRGDQALAALDWATTRSPVASRIDRTRLAAAGWSMGGGGLRRAACQRPSLKAIVGMAPWNGERNWSCVTVPTLFFGGSSDAVASPNDHAKPFYNSITRAEKDYIELRNADHFFPTSANTTMAKYFISWLKRWVDNDTRYTQFLCPGPSTGLFAPVSASMNTCPF"}, "B12": {"name": "unnamed (protein)", "chain": "MLSFLRSTGRPERRRASLPALLLFTAALVASGLTAAPAAQAADNPYQRGPDPTNASIEAATGPFAVGTQPIVGASGFGGGQIYYPTDTSQTYGAVVIVPGFISVWAQLNWLGPRLASQGFVVIGIETSVITDLPDPRGDQALAALDWATTRSPVASRIDATRLAAAGWSMGGGGLRRAALQRPSLKAIVGMAPWNGERNWSAVTVPTLFFGGSSDAVASPNDHAKPFYNSITRAEKDYIELRNADHFFPTSANTTMAKYFISWLKRWVDNDTRYTQFLCPGPSTGLFAPVSASMNTCPF"}, "B13": {"name": "unnamed (protein)", "chain": "MLSFLRSTGRPERRRASLPALLLFTAALVASGLTAAPAAQAADNPYQRGPDPTNASIEAATGPFAVGTQPIVGASGFGGGQIYYPTDTSQTYGAVVIVPGFISVWAQLAWLGPRLASQGFVVIGIETSVITDLPDPRGDQALAALDWATTRSPVASRIDRTRLAAAGWSMGGGGLRRAACQRPSLKAIVGMAPWNGERNWSCVTVPTLFFGGSSDAVASPNDHAKPFYNSITRAEKDYIELCNADHFFPTSANTTMAKYFISWLKRWVDNDTRYTQFLCPGPSTGLFAPVCASMNTCPF"}, "B14": {"name": "unnamed (protein)", "chain": "MLSFLRSTGRPERRRASLPALLLFTAALVASGLTAAPAAQAADNPYQRGPDPTNASIEAATGPFAVGTQPIVGASGFGGGQIYYPTDTSQTYGAVVIVPGFISVWAQLNWLGPRLASQGFVVIGIETSVITDLPDPRGDQALAALDWATTRSPVASRIDRTRLAAAGWSMGGGGLRRAALQRPSLKAIVGMAPWNGERNWSAVTVPTLFFGGSSDAVASPNDHAKPFYNSITRAEKDYIELRNADHFFPTSANTTMAKYFISWLKRWVDNDTRYTQFLCPGPSTGLFAPVSASRNTCPF"}, "B15": {"name": "unnamed (protein)", "chain": "MLSFLRSTGRPERRRASLPALLLFTAALVASGLTAAPAAQAADNPYQRGPDPTNASIEAATGPFAVGTQPIVGASGFGGGQIYYPTDTSQTYGAVVIVPGFISVWAQLNWLGPRLASQGFVVIGIETSVITDLPDPRGDQALAALDWATTRSPVASRIDRTRLAAAGWSMGGGGLRRAALQRPSLKAIVGMAPWNTERNWSAVTVPTLFFGGSSDAVASPNDHAKPFYNSITRAEKDYIELRNADHFFPTSANTTMAKYFISWLKRWVDNDTRYTQFLCPGPSTGLFAPVSASMNTCPF"}, "B16": {"name": "unnamed (protein)", "chain": "MLSFLRSTGRPERRRASLPALLLFTAALVASGLTAAPAAQAADNPYQRGPDPTNASIEAATGPFAVGTQPIVGASGFGGGQIYYPTDTSQTYGAVVIVPGFISVWAQLNWLGPRLASQGFVVIGIETSVITDLPDPRGDQALAALDWATTRSPVASRIDRTRLAAAGWSMGGGGLRRAACQRPSLKAIVGMAPWNGERNWSCVTVPTLFFGGSSDAVASPNDHAKPFYNSITRAEKDYIELCNADHFFPTSANTTMAKYFISWLKRWVDNDTRYTQFLCPGPSTGLFAPVCASMNTCPF"}}}
{"substrate": "pcPET (post-consumer)", "assay": "Proxy for plastic degradation [Released monomer concentration (HPLC/LC-MS) (TPA+MHET+BHET)]", "conditions": "pH 9; 40 °C; 24 h", "units": {"Proxy for plastic degradation": "µM"}}
{"protein": "B1", "Proxy for plastic degradation": 990}
{"protein": "B2", "Proxy for plastic degradation": 530}
{"protein": "B3", "Proxy for plastic degradation": 1370}
{"protein": "B4", "Proxy for plastic degradation": 590}
{"protein": "B5", "Proxy for plastic degradation": 470}
{"protein": "B6", "Proxy for plastic degradation": 170}
{"protein": "B7", "Proxy for plastic degradation": 600}
{"protein": "B8", "Proxy for plastic degradation": 1250}
{"protein": "B9", "Proxy for plastic degradation": 220}
{"protein": "B10", "Proxy for plastic degradation": 560}
{"protein": "B11", "Proxy for plastic degradation": 850}
{"protein": "B12", "Proxy for plastic degradation": 680}
{"protein": "B13", "Proxy for plastic degradation": 1080}
{"protein": "B14", "Proxy for plastic degradation": 310}
{"protein": "B15", "Proxy for plastic degradation": 840}
{"protein": "B16", "Proxy for plastic degradation": 948}
{"substrate": "pcPET (post-consumer)", "assay": "Proxy for plastic degradation [Released monomer concentration (HPLC/LC-MS) (TPA+MHET+BHET)]", "conditions": "pH 9; 60 °C; 6 h", "units": {"Proxy for plastic degradation": "µM"}}
{"protein": "B3", "Proxy for plastic degradation": 1860}
{"protein": "B8", "Proxy for plastic degradation": 1560}
{"protein": "B13", "Proxy for plastic degradation": 420}
{"protein": "B16", "Proxy for plastic degradation": 270}
